To fix the notation:
B1: target 1 C6G,G15A (mixed)
RNA 1: CACCCGUGCAAAAAUGCAGGGGUCUAAAACUGAGCGGAUAACCUCUCUAUGG
RNA 2: GGGAAUGGAUCCACAUCUACGAAUUCGUACCAUAGAAAGGUUAUCGGCUCACCGAGAUCGGAAGAGCACACGU
B2: target 1 insG 3' of 22 (mixed)
RNA 1: B1 RNA 1
RNA 2: GGGAAUGGAUCCACAUCUACGAAUUCGUACGCAUAGAGAGGUUAUCCGCUCACCGAGAUCGGAAGAGCACACGU
B3: target 1 insG 3' of 8,insG 3' of 1 (mixed)
RNA 1: B1 RNA 1
RNA 2: GGGAAUGGAUCCACAUCUACGAAUUCGUACCAUAGAGAGGUUAUGCCGCUCAGCCGAGAUCGGAAGAGCACACGU
B4: target 1 insA 3' of 8 (mixed)
RNA 1: B1 RNA 1
RNA 2: GGGAAUGGAUCCACAUCUACGAAUUCGUACCAUAGAGAGGUUAUACCGCUCACCGAGAUCGGAAGAGCACACGU
B5: target 1 insA 3' of 15,insG 3' of 4 (mixed)
RNA 1: B1 RNA 1
RNA 2: B3 RNA 2 with G39A, U41G, A43U, U44A, G45U, U50G, C51U, A52C, G53A
B6: target 1 U10A,A18U (mixed)
RNA 1: B1 RNA 1
RNA 2: B1 RNA 2 with A34U, A37G, U42A, G46C
B7: target 1 insG 3' of 10,insA 3' of 8 (mixed)
RNA 1: B1 RNA 1
RNA 2: GGGAAUGGAUCCACAUCUACGAAUUCGUACCAUAGAGAGGUUGAUACCGCUCACCGAGAUCGGAAGAGCACACGU
B8: target 1 insC 3' of 22,insU 3' of 5 (mixed)
RNA 1: B1 RNA 1
RNA 2: GGGAAUGGAUCCACAUCUACGAAUUCGUACCCAUAGAGAGGUUAUCCGUCUCACCGAGAUCGGAAGAGCACACGU
B9: target 1 insU 3' of 2 (mixed)
RNA 1: B1 RNA 1
RNA 2: B4 RNA 2 with A45C, C47G, G48C, C49U, U50C, C51U
B10: target 1 insC 3' of 22,insA 3' of 4 (mixed)
RNA 1: B1 RNA 1
RNA 2: B8 RNA 2 with U49C, C50A
B11: target 1 U8A,C21A (mixed)
RNA 1: B1 RNA 1
RNA 2: B1 RNA 2 with C31A, A37G, U44A, G46C
B12: target 1 C4G,G17U (mixed)
RNA 1: B1 RNA 1
RNA 2: B1 RNA 2 with G35U, A37G, G46C, C48G
B13: target 1 insC 3' of 11,insG 3' of 3 (mixed)
RNA 1: B1 RNA 1
RNA 2: B3 RNA 2 with U42C, A43U, U44A, G45U, C51G, A52C, G53A
B14: target 1 insA 3' of 13,insU 3' of 1 (mixed)
RNA 1: B1 RNA 1
RNA 2: B3 RNA 2 with G40A, U41G, A43U, U44A, G45U, G53U
B15: target 1 insC 3' of 9,insG 3' of 1 (mixed)
RNA 1: B1 RNA 1
RNA 2: B3 RNA 2 with U44C, G45U

Where a chain is given by its changes, count along the chain named. In names and notes the source's numbering stands.

The target in the series is T1, EsCas13d, nuclease-dead (Eubacterium siraeum, UniProt B0MS50, R295A;H300A;R849A;H854A).
T1 sequence: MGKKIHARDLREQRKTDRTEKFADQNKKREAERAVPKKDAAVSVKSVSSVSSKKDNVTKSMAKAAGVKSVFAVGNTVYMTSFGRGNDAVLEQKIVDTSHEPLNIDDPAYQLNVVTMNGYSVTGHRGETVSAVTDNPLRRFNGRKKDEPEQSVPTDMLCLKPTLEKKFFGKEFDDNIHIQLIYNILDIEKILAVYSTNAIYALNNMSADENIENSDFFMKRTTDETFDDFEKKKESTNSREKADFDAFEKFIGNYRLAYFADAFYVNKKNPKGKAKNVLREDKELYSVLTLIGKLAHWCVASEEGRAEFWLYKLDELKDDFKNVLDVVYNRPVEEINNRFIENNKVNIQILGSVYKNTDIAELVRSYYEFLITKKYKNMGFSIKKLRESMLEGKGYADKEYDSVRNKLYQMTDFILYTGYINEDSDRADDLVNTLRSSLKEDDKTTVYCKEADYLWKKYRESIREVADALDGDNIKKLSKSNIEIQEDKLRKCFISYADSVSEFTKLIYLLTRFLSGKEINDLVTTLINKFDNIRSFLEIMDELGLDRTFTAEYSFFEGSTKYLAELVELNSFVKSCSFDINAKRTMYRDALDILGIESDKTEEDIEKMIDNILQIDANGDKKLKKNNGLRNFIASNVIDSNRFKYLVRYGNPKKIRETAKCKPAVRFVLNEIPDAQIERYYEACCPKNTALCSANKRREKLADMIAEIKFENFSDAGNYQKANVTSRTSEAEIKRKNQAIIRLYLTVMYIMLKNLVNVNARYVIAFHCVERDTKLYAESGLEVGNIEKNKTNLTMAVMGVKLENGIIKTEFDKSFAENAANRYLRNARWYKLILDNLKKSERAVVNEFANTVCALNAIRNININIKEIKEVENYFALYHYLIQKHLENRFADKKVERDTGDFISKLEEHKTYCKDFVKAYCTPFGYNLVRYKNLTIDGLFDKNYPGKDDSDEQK
Briefly: crRNA (strand 1, pre-loaded); Mg2+; 40 mM Tris-HCl pH 7.5, 150 mM NaCl, 6 mM MgCl2, 1 mM DTT, 0.1% Tween-20, 0.2 mg/ml BSA; 25 C; 10 min per concentration, then washed. Particulars: tags: His6-TwinStrep-SUMO cleaved; N-terminal SNAP kept (SNAP-Surface 488); label: 3' end held by stalled T7 RNA polymerase.
One may read the Kd as the constant that tells how readily two partners part at equilibrium. Lower therefore signals a tighter complex. Take B1: binding was put at a Kd of 14.4 ± 0.8 nM.

In the case of B2, binding was put at a Kd of 31 ± 2.8 nM.

The molecule B3 registered a Kd of 13.4 ± 0.7 nM.

On to B4, for which the Kd worked out at 15.7 ± 1 nM.

B5 returned a Kd of 6.4 ± 0.6 nM.

Regarding B6, the Kd amounted to 43 ± 4 nM.

B7 gave a Kd of 21.6 ± 1 nM.

The molecule B8 had a Kd of 24.3 ± 3.1 nM.

The molecule B9 showed a Kd of 9.7 ± 0.8 nM.

As for B10, the Kd amounted to 15.9 ± 3.1 nM.

For B11, the Kd stood at 55 ± 9 nM.

On to B12, for which the affinity, expressed as Kd, was 39 ± 12 nM.

On to B13, for which binding was characterised by a dissociation constant (Kd) of 24.9 ± 1.4 nM.

On to B14, for which the Kd is 3.62 ± 0.33 nM.

Molecule B15 yielded a Kd of 12.2 ± 1.2 nM.

These data come from paper PMC10786891, “Massively parallel profiling of RNA-targeting CRISPR-Cas13d”.
